Measured values: article PMC3718980 (The Journal of Cell Biology, 2013)
Where a chain is given by its changes, count along the chain named. One block for each molecule: values may come before it.

How the values were obtained:
[1] = target: microtubules (polymerized with GMPCPP, in taxol); experiment: co-sedimentation
[2] = target: T1, GST-CERMAD of wild-type Moesin (residues 483–578) (Drosophila melanogaster, UniProt P46150 483-578); experiment: pull-down
T1 sequence (looked up): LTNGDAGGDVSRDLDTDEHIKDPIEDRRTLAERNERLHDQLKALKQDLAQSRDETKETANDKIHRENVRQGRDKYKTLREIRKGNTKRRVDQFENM

[3] = target: microtubules (polymerized with GMPCPP, in taxol); experiment: co-sedimentation; remark: listed apart in the source

Kd [1]: 1900 nM
Molecule: Moesin1–559 (Drosophila Moesin with the C-terminal 19 amino acids deleted) (from UniProt P46150 1-559) (domain or fragment)

stoichiometry N [2]: 1
B1: FERM domain of Drosophila Moesin, wild type (domain or fragment, Drosophila melanogaster, UniProt P46150 1-296, looked up)
chain: MSPKALNVRVTTMDAELEFAIQSTTTGKQLFDQVVKTIGLREVWFFGLQYTDSKGDSTWIKLYKKVMNQDVKKENPLQFRFRAKFYPEDVAEELIQDITLRLFYLQVKNAILTDEIYCPPETSVLLASYAVQARHGDHNKTTHTAGFLANDRLLPQRVIDQHKMSKDEWEQSIMTWWQEHRSMLREDAMMEYLKIAQDLEMYGVNYFEIRNKKGTDLWLGVDALGLNIYEQDDRLTPKIGFPWSEIRNISFSEKKFIIKPIDKKAPDFMFFAPRVRINKRILALCMGNHELYMRRR

stoichiometry N [2]: 1
fold reduction in the apparent Kd against FERM wild type [3]: 3.6 fold
B2: FERM-K212,213M of Drosophila Moesin (domain or fragment, Drosophila melanogaster, UniProt P46150 1-296, looked up)
chain: B1 chain with K212M, K213M
